Reference: US20210147526A1

Columns and labels:
[1] = target: ITGA7 mutant P980A on HEK-293T cells (human) (UniProt P05556); test: high-throughput flow cytometry on HEK-293T cells with the ITGA7 alanine mutant, high stringency, normalized to wild type
[2] = target: ITGA7 mutant S977A on HEK-293T cells (human) (UniProt P05556); test: as above
Chain of ITGA7 mutant S977A on HEK-293T cells (human) (chain, as listed by the source S977A S977A, chain 1 of 2): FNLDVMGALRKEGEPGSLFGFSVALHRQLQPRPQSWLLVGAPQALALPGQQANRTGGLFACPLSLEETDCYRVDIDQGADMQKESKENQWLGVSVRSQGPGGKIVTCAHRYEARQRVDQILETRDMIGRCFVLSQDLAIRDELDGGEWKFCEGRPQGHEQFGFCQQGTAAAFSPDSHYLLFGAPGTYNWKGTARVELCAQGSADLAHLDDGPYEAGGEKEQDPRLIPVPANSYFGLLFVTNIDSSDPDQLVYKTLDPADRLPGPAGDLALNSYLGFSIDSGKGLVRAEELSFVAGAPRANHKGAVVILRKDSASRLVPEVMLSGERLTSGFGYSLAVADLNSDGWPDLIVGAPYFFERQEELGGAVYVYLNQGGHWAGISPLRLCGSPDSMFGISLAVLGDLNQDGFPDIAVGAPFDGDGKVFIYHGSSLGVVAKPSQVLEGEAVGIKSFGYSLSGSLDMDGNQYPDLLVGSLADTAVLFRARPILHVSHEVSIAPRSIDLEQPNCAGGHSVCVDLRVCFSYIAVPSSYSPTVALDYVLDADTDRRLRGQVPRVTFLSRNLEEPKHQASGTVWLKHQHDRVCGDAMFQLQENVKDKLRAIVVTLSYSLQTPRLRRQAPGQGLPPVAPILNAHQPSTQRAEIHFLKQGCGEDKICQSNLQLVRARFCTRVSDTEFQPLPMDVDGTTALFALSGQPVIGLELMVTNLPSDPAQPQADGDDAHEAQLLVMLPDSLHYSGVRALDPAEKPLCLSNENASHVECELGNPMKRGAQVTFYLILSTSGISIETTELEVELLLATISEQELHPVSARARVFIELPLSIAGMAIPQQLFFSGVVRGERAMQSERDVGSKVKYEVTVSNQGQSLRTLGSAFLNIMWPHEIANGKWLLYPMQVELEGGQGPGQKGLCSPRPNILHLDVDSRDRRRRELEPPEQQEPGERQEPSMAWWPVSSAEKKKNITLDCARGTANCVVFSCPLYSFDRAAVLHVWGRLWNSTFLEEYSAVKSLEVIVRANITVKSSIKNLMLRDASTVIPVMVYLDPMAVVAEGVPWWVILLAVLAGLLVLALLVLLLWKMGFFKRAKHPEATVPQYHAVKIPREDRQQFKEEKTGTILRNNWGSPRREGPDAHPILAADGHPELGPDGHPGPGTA
Chain of ITGA7 mutant S977A on HEK-293T cells (human) (P05556 21-798, chain 2 of 2): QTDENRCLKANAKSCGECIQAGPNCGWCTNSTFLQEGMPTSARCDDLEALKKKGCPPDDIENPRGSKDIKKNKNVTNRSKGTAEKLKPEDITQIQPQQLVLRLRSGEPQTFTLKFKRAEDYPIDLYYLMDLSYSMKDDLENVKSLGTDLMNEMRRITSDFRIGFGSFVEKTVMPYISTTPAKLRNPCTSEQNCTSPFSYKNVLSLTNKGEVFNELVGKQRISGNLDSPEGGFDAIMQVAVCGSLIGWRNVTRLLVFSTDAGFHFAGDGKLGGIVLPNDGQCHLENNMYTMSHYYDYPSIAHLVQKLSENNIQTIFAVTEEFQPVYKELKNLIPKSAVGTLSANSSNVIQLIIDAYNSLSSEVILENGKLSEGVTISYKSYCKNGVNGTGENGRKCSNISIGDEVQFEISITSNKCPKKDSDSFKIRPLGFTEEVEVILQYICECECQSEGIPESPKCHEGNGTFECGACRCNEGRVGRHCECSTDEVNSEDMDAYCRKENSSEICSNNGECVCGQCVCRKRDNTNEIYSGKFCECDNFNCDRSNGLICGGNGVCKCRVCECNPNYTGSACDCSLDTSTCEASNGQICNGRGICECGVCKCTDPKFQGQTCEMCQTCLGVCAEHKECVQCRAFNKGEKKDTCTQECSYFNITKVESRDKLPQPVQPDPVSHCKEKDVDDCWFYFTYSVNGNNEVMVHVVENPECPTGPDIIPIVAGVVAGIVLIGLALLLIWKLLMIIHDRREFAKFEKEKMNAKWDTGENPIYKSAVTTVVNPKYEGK

Chain of ITGA7 mutant P980A on HEK-293T cells (human) (chain, as listed by the source P980A P980A, chain 1 of 2): as the sequence (chain, as listed by the source S977A S977A, chain 1 of 2) above, with A944S, P947A counted along it
Chain of ITGA7 mutant P980A on HEK-293T cells (human) (P05556 21-798, chain 2 of 2): as the sequence (P05556 21-798, chain 2 of 2) above

Binding Reactivity (% WT) [1]: 1.1 % WT
Binding Reactivity (% WT) [2]: 8 % WT
B1: VL3VHK20TFT Fab (Fab, V domains shown)
VH: QVQLVQSGAEVKKPGASVKVSCKASGYTFTKYWINWVRQAPGQGLEWMGIIYPGSSTSNYNEKFKTRVTMTVDTSTSTAYMELSSLRSEDTAVYYCVKNDNWGQGTLVTVSS
VL: DIQMTQSPSSLSASVGDRVTITCRASESVDNYGISFMNWFQQKPGKAPKLLIYAASDLGSGVPSRFSGSGSGTDFTLTISSLQPEDFATYYCHQSKEVPYTFGQGTKLEIK
